Consider 4 molecules from patent publication US20260209789A1 (WESTLAKE UNIVERSITY, published 2026).

One test deals with endogenous eIF4G (human (endogenous in HEK-293 cells), UniProt Q04637 1-1599). Description: anti-Flag co-IP from HEK-293 lysate, Western blot with anti-eIF4G (FIG. 6A).
For the next test, the target named is T1, BCR-ABL.
T1 construct: Overexpressed in HEK-293 cells; also called BCR-ABL oncoprotein; BCR-ABL fusion protein

The target of the next test is endogenous eIF4E (human (endogenous in HEK-293 cells), UniProt P06730 2-217). The experiment in a line: anti-Flag co-IP from HEK-293 lysate, Western blot with anti-eIF4E (FIG. 6A).
endogenous eIF4E, sequence (P06730 2-217 limits assumed): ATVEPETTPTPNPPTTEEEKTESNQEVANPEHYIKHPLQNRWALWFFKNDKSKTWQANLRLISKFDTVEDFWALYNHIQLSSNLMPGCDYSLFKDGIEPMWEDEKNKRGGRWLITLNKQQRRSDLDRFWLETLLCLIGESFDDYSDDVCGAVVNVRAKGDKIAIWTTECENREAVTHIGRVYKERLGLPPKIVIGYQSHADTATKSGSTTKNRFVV

endogenous eIF4G, sequence (Q04637 whole entry): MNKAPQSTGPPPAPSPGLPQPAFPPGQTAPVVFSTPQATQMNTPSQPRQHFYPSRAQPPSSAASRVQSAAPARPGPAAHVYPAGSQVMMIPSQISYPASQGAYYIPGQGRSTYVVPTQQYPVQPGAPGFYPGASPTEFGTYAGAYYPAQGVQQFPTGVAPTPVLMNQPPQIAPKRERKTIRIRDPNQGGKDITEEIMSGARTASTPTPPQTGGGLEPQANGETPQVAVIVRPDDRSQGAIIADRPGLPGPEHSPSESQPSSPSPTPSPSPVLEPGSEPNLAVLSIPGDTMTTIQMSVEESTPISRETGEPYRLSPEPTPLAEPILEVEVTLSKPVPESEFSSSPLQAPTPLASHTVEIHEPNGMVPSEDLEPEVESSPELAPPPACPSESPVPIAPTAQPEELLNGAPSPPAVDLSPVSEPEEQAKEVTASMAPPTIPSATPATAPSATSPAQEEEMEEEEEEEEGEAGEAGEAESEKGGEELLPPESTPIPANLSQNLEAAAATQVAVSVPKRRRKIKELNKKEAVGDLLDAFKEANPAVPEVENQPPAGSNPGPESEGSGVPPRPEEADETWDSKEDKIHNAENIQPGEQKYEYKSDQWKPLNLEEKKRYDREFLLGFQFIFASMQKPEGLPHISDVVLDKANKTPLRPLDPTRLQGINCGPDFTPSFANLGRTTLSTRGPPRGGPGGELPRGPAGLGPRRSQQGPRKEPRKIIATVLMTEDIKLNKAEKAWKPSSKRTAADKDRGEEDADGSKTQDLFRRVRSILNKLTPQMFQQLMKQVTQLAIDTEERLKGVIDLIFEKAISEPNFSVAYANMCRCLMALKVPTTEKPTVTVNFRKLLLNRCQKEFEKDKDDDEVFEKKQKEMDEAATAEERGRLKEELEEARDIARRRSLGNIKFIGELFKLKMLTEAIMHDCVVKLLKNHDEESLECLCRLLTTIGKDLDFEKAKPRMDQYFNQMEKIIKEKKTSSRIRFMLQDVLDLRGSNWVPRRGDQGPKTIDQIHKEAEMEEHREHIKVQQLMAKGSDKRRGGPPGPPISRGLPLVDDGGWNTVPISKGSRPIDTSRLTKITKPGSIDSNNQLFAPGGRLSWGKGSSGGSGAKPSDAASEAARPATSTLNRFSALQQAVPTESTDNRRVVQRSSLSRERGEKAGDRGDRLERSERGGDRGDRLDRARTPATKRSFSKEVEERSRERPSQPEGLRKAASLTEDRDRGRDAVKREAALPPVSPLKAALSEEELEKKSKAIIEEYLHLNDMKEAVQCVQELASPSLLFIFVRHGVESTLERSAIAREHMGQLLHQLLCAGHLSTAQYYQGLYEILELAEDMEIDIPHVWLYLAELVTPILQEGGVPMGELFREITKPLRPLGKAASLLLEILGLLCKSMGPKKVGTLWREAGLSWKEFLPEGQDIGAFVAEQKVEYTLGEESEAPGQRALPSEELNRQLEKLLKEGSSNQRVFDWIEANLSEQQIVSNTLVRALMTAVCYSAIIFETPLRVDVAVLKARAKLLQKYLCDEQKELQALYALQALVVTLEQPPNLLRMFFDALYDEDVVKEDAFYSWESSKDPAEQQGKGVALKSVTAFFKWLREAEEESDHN

B1: 3xFLAG-MCP-NSP3 (other)
chain: MDYKDHDGDYKDHDIDYKDDDDKASNFTQFVLVDNGGTGDVTVAPSNFANGVAEWISSNSRSQAYKVTCSVRQSSAQKRKYTIKVEVPKVATQTVGGVELPVAAWRSYLNMELTIPIFATNSDCELIVKAMQGLLKDGNPIPSAIAANSGIYASGSGGGGDVMLKMESTQQMASSIINTSFEAAVVAATSTLELMGIQYDYNEVYTRVKSKFDYVMDDSGVKNNLLGKAATIDQALNGKFGSAARNRNWMADTRTTARLDEDVNKLRMMLSSKGIDQKMRVLNACFNVKRVPGKSSSIIKCTRLMRDKIERGEVEVDDSFVEEKMEVDTIDWKSRYEQLEKRFESLKQRVNEKYTSWVQKAKKVNENMYSLQNVISQQQSQIADLQNYCNKLEVDLQNKISSLVSSVEWYLKSMELPDEIKTDIEQQLNSIDVINPINAIDDFESLIRNIILDYDRIFLMFKGLMRQCNYEYTYE
notes: also called 3×FLAG-tagged MCP-NSP3; pSL1083
In the case of B1, the binding result in the test with endogenous eIF4G is reported as “binds”.

B2: 3xHA-CCmut3-NSP3 (designed binder)
chain: MVDPVGFAEAWKAQFPDSEPPRMELRSVGDIEQELERAEARIRRNEQRVNQERFRMIYLETLLAKEKKSYDRASGSGGGGDVASMLKMESTQQMASSIINTSFEAAVVAATSTLELMGIQYDYNEVYTRVKSKFDYVMDDSGVKNNLLGKAATIDQALNGKFGSAARNRNWMADTRTTARLDEDVNKLRMMLSSKGIDQKMRVLNACFNVKRVPGKSSSIIKCTRLMRDKIERGEVEVDDSFVEEKMEVDTIDWKSRYEQLEKRFESLKQRVNEKYTSWVQKAKKVNENMYSLQNVISQQQSQIADLQNYCNKLEVDLQNKISSLVSSVEWYLKSMELPDEIKTDIEQQLNSIDVINPINAIDDFESLIRNIILDYDRIFLMFKGLMRQCNYEYTYEYPYDVPDYAYPYDVPDYAYPYDVPDYA
notes: also called 3×HA-tagged CCmut3-NSP3; pSL1102
For B2, the binding result in the test with BCR-ABL is listed as “binds”.

B3: 3xFLAG-MCP (other)
chain: MDYKDHDGDYKDHDIDYKDDDDKASNFTQFVLVDNGGTGDVTVAPSNFANGVAEWISSNSRSQAYKVTCSVRQSSAQKRKYTIKVEVPKVATQTVGGVELPVAAWRSYLNMELTIPIFATNSDCELIVKAMQGLLKDGNPIPSAIAANSGIY
notes: also called 3×FLAG-tagged MCP; pSL1084
As for B3, the binding result with endogenous eIF4G and with endogenous eIF4E was “no binding” each time.

B4: 3xFLAG-MCP-ABI(iDab) (VHH)
chain: MDYKDHDGDYKDHDIDYKDDDDKASNFTQFVLVDNGGTGDVTVAPSNFANGVAEWISSNSRSQAYKVTCSVRQSSAQKRKYTIKVEVPKVATQTVGGVELPVAAWRSYLNMELTIPIFATNSDCELIVKAMQGLLKDGNPIPSAIAANSGIYASGSGGGGDVGSEVQLLESGGGLVQPGGSLRLSCAASGFTFSTFSMNWVRQAPGKGLEWVSYISKCGHVIYYADSVKGRFTISRDNSKNTLYLQMNSLRAEDTAVYYCARGPLWSFVRMSFDYWGQGTLVTVSSAS
notes: also called 3×FLAG-tagged MCP-ABI (iDab)3; 3xFLAG-MCP-(ABI(iDab))3
Turning to B4, the binding result in the test with BCR-ABL was “binds”.
